The subject of data set [1] is LPETA sorting signal (SEQ ID NO:29).
The target of data set [2] is T1, LLCKR substrate (SEQ ID NO:50).
T1 chain: LLCKR

The target in data set [3] is T2, RLRPR substrate (SEQ ID NO:39).
T2 chain: RLRPR

Data set [4] has as its target T3, PLLAR substrate (SEQ ID NO:47).
T3 chain: PLLAR

For data set [5], the target named is T4, LRPRA substrate (SEQ ID NO:37).
T4 chain: LRPRA

The target in data set [6] is T5, PLRPR substrate (SEQ ID NO:44).
T5 chain: PLRPR

For data set [7], the target named is T6, RLAPR substrate (SEQ ID NO:45).
T6 chain: RLAPR

For data set [8], the target named is T7, LQPRA substrate (SEQ ID NO:51).
T7 chain: LQPRA

Data set [9] concerns the target T8, RLTPR substrate (SEQ ID NO:31).
T8 chain: RLTPR

For data set [10], the target named is T9, PLLRR substrate (SEQ ID NO:43).
T9 chain: PLLRR

For data set [11], the target named is T10, RLLPR substrate (SEQ ID NO:40).
T10 chain: RLLPR

The target of data set [12] is T11, RLSRR substrate (SEQ ID NO:41).
T11 chain: RLSRR

Data set [13] deals with T12, ALARR substrate (SEQ ID NO:36).
T12 chain: ALARR

For data set [14], the target named is T13, PLVPR substrate (SEQ ID NO:48).
T13 chain: PLVPR

The target in data set [15] is T14, ALSRR substrate (SEQ ID NO:38).
T14 chain: ALSRR

Data set [16] addresses T15, SPAKR substrate (SEQ ID NO:32).
T15 chain: SPAKR

Data set [17] addresses T16, SLRRR substrate (SEQ ID NO:49).
T16 chain: SLRRR

Data set [18] has as its target T17, RRRRR substrate.
T17 chain: RRRRR

Data set [19] deals with T18, PLLPR substrate (SEQ ID NO:42).
T18 chain: PLLPR

Data set [20] addresses T19, VARRD substrate (SEQ ID NO:14).
T19 chain: VARRD

The target in data set [21] is T20, ALLPR substrate (SEQ ID NO:46).
T20 chain: ALLPR

The target of data set [22] is T21, ENLYFQS substrate (SEQ ID NO:8).
T21 chain: ENLYFQS

The target of data set [23] is T22, ENLYFES substrate (SEQ ID NO:1).
T22 chain: ENLYFES

Numbering of substitutions follows the chain as printed. Names may count otherwise.

Take SrtA from S. pyogenes (residues 81-249): the “sortase transpeptidation in yeast ER (FACS, HA-FITC against FLAG-PE)” value in data set [1] is “A positive signal resulted in an increase in HA-FITC signal and decrease in FLAG-PE signal (FIG. 6B), in comparison to the negative control (FIG. 6A)”.

B1: Kex2 convertase (endogenous, yeast secretory pathway of Saccharomyces cerevisiae EBY100) (protein)
chain: APPMDSSLLPVKEAEDKLSINDPLFERQWHLVNPSFPGSDINVLDLWYNNITGAGVVAAIVDDGLDYENEDLKDNFCAEGSWDFNDNTNLPKPRLSDDYHGTRCAGEIAAKKGNNFCGVGVGYNAKISGIRILSGDITTEDEAASLIYGLDVNDIYSCSWGPADDGRHLQGPSDLVKKALVKGVTEGRDSKGAIYVFASGNGGTRGDNCNYDGYTNSIYSITIGAIDHKDLHPPYSEGCSAVMAVTYSSGSGEYIHSSDINGRCSNSHGGTSAAAPLAAGVYTLLLEANPNLTWRDVQYLSILSAVGLEKNADGDWRDSAMGKKYSHRYGFGKIDAHKLIEMSKTWENVNAQTWFYLPTLYVSQSTNSTEETLESVITISEKSLQDANFKRIEHVTVTVDIDTEIRGTTTVDLISPAGIISNLGVVRPRDVSSEGFKDWTFMSVAHWGENGVGDWKIKVKTTENGHRIDFHSWRLKLFGESIDSSKTETFVFGNDKEEVEPAATESTVSQYSASSTSISISATSTSSISIGVETSAIPQTTTASTDPDSDPNTPKKLSSPRQAMHYFLTIFLIGATFLVLYFMFFMKSRRRIRRSRAETYEFDIIDTDSEYDSTLDNGTSGITEPEEVEDFDFDLSDEDHLASLSSSENGDAEHTIDSVLTNENPFSDPIKQKFPNDANAESASNKLQELQPDVPPSSGRS
Regarding B1, the “substrate cleavage in EBY100 against EBY100^Kex2- (two-colour FACS)” value in [2] is “All three substrates exhibited cleavage in EBY100 and non-cleavage in EBY100^Kex2-”; in data set [8], “efficient cleavage in the EBY100 and non-cleavage in the EBY100^Kex2- strain”; in data set [16] it was “All three substrates exhibited cleavage in EBY100 and non-cleavage in EBY100^Kex2-”; in data set [20], “All three substrates exhibited cleavage in EBY100 and non-cleavage in EBY100^Kex2-”. Further, the “substrate cleavage in EBY100 against EBY100^Kex2- (two-colour FACS, FLAG-PE/HA-FITC)” value in data set [3], in [4], in [5], in data set [6], in [7] and in [9] was “✓” in each case. In addition, the “substrate cleavage in EBY100 against EBY100^Kex2- (two-colour FACS, FLAG-PE/HA-FITC)” value in [10], in [11], in [12], in data set [13], in data set [14] and in data set [15] was “✓” throughout. Moreover, the “substrate cleavage in EBY100 against EBY100^Kex2- (two-colour FACS, FLAG-PE/HA-FITC)” value in [17], in data set [19] and in data set [21] was “✓” throughout. Besides, in [18], the “substrate cleavage in EBY100 against EBY100^Kex2-” value is “the RRRRR was also found to be only cleaved in the EBY100 and not in the EBY100^Kex2-”.

B2: wild-type tobacco etch mosaic virus protease (TEV-P) (protein)
chain: GESLFKGPRDYNPISSTICHLTNESDGHTTSLYGIGFGPFIITNKHLFRRNNGTLLVQSLHGVFKVKNTTTLQQHLIDGRDMIIIRMPKDFPPFPQKLKFREPQREERICLVTTNFQTKSMSSMVSDTSCTFPSSDGIFWKHWIQTKDGQCGSPLVSTRDGFIVGIHSASNFTNTNNYFTSVPKNFMELLTNQEAQQWVSGWRLNADSVLWGGHKVFMSKPEEPFQPVKEATQLMNELVYSQFEHDEL
On to B2, for which, in [22], the “enrichment of cleaved substrate sequences after FACS sorting (YESS with NextGen sequencing)” value is reported as “significant enrichments of the ENLYFQS (SEQ ID NO:8) sequence were observed for the wide-type TEV-P”.

B3: engineered TEV protease variant TEV-PE10 (S120R, D148R, T173A, N177K, M218I) (protein)
chain: B2 chain with S120R, D148R, T173A, N177K, M218I
On to B3, for which the “enrichment of cleaved substrate sequences after FACS sorting (YESS with NextGen sequencing)” value in data set [23] was “significant enrichments of the ... ENLYFES (SEQ ID NO:1) sequence for the engineered TEV-PE10”.

Values taken from patent publication US20170233781.
